Test results reported in patent US20250042943A1, “FAP DETECTION” (THE UNIVERSITY COURT OF THE UNIVERSITY OF EDINBURGH, priority 2021, published 2025).
“Also recorded” adds a separate entry of the source. Where a SMILES comes first, the peptide text is derived from it. [ ]: non-standard residue; d: D form. The star is where a group is joined. 5FAM = O=C1OC2(c3ccc(O)cc3Oc3cc(O)ccc32)c2ccc(C(=O)*)cc21; X1 = CN(C)c1ccc(N=Nc2ccccc2C(=O)*)cc1; AEEA = NCCOCCOCC(=O)O

Experiments:
rhFAP = target: T1, rhFAP (Homo sapiens, UniProt Q12884); assay: Probe cleavage by recombinant human FAP (fluorescence read); type: biochemical; details: for signal (relative fluorescence intensity) with rhFAP: comparison between probe iterations; for FAP specificity (over PREP): from recombinant enzyme assessment; for cleavage by rhFAP: probe 5 μM, enzyme 0.1 μg/ml, read 480/530 nm
T1 sequence (Q12884 1-760): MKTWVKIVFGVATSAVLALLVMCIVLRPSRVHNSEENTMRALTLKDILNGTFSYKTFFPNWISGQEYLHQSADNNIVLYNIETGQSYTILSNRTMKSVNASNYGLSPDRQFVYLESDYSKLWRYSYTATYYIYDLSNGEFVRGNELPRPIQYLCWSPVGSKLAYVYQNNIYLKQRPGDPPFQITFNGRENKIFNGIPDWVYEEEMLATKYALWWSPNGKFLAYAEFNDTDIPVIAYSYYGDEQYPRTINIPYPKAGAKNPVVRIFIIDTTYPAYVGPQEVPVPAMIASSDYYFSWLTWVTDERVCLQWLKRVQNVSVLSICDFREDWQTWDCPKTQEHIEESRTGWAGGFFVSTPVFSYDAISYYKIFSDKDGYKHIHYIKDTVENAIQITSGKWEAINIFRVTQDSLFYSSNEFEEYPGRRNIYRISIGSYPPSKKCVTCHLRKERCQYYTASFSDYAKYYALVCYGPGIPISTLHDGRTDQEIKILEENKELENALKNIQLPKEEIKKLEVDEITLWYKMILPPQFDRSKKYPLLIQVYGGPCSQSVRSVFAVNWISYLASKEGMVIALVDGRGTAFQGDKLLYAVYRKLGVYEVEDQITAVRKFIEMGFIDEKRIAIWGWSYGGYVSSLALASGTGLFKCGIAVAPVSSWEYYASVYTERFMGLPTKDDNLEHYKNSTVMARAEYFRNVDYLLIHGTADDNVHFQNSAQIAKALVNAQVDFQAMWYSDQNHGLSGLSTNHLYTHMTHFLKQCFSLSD

rhPREP = target: T2, rhPREP (Homo sapiens, UniProt P48147); assay: Probe cleavage by recombinant human PREP; type: biochemical; details: probe 5 μM, enzyme 0.1 μg/ml, read 480/530 nm
T2 sequence (P48147 1-710): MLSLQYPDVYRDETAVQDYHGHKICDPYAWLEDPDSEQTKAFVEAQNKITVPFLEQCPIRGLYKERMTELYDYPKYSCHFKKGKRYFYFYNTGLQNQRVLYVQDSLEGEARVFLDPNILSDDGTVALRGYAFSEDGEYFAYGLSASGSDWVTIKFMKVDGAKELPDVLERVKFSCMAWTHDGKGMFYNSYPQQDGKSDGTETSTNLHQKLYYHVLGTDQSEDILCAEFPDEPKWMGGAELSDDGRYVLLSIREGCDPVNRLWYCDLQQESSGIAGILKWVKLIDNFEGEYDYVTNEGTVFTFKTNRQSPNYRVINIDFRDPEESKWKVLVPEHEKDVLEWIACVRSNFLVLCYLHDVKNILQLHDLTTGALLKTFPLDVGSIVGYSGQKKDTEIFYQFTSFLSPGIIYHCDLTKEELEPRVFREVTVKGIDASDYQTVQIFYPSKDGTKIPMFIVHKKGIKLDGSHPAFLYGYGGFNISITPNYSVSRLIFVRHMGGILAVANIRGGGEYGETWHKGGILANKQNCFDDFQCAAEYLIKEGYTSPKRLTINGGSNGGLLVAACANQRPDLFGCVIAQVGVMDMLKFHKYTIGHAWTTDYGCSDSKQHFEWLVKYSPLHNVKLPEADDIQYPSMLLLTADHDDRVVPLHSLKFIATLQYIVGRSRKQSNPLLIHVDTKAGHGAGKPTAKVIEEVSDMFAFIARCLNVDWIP

rhDPPIV = rhDPPIV (Homo sapiens, UniProt P27487); assay: Probe cleavage by recombinant human DPPIV (exopeptidase activity); type: biochemical; details: probe 5 μM, enzyme 0.1 μg/ml, read 480/530 nm
[1] = Toxicity in rats, intravenous (bolus) dosing for 7 days; type: in vivo; details: intravenous (bolus) injection of 0.1 mg for 7 days
Protocol: The potential toxicity of the FAP probe was assessed by dosing rats with an intravenous (bolus) injection of 0.1 mg of the FAP3 probe for 7 days.

[2] = test system: cancer associated fibroblasts (CAFs) from NSCLC patient samples; assay: Assessment on cancer associated fibroblasts (CAFs); type: cell-based, human; details: co-incubated with FAP3
Protocol: CAFs were isolated from NSCLC patient samples as previously described methods known in the art. Briefly, tissue samples were minced with forceps and incubated for an hour in prewarmed RPMI media (Gibco) containing collagenase IV [2 mg/ml](Sigma) and DNase [0.2 mg/ml](Sigma). Samples were spun at 350 g for 5 minutes and red blood cells were lysed from samples using RBC lysis buffer (BioLegend) in 10 mls for 10 minutes. Following a further spin at 350 g for 5 minutes, cells were seeded in culture flasks in DMEM containing 10% FCS, 1% Penicillin-Streptomycin, 1% L-Glutamine and 10% Insulin Transferrin Selenium (ITS). 24 hours after seeding, non-adherent cells were washed from the flasks. Cells were maintained by standard cell culture methods and by passage 2, the predominant cell type was CAFs, assessed by flow cytometry markers and morphology. CAFs between passage 4-9 were used to assess FAP probes and confirmed to be FAP^hi by flow cytometry.
CAFs were seeded into 96 well plates in a 100 μl media (complete DMEM as described above) at a density of 1×10^5 cells/ml to form a confluent monolayer within 24 hours. Wells containing cells had media removed and then were washed before buffer (DPBS)+/− inhibitors were added with the imaging probes. Immediately after adding imaging probes, the plate was transferred to the prewarmed spectrophotometer as above and read at 480/530 nm for one hour.

[3] = test system: NSCLC patient tissue samples; assay: Fluorescence intensity and lifetime imaging (FLIM, KronoScan) of ex vivo NSCLC tissue; type: cell-based, human; details: VBP (1:1000) added with FAP3; listed as VBP
Protocol: For imaging solutions, varying concentrations of rhFAP were prepared in blackened eppendorfs and FAP3 to a final concentration of 5 μm added and imaged as below. For biological specimens, NSCLC patient tissue samples from surgical resection were used fresh or snap frozen and stored at −80 until required. Small fragments (approx. 4 mm^3) incubated at 37° C. in a 96 well plate in phenyl-red free DMEM (Gibco) containing 10% FCS, 1% Penicillin-streptomycin and 1% L-Glutamine. For the inhibitor fragments VBP (1:1000) was added. Samples were then imaged using a clinically tractable novel fluorescence lifetime imaging system, KronoScan, with an imaging fibre providing a 400×400 um field of view. […] This spectrometer contains a 512 channel single photon avalanche diode (SPAD) sensor, allowing for the rapid collection of time resolved spectral fluorescence lifetime data. Fluorescence intensity and lifetime images were collected at 160×160 pixels over a 498-570 nm spectral range with an exposure time of 13 μs per pixel. […]
For each condition the tumour samples were imaged using a fibre placed at the tip of the tissue (baseline), and then again at 10 minute intervals following the additions of equimolar concentrations of probe+/− Inhibitor. […] Each condition and time-point data for both fluorescence intensity and lifetime were collected. […]

Chain of rhDPPIV (P27487 whole entry): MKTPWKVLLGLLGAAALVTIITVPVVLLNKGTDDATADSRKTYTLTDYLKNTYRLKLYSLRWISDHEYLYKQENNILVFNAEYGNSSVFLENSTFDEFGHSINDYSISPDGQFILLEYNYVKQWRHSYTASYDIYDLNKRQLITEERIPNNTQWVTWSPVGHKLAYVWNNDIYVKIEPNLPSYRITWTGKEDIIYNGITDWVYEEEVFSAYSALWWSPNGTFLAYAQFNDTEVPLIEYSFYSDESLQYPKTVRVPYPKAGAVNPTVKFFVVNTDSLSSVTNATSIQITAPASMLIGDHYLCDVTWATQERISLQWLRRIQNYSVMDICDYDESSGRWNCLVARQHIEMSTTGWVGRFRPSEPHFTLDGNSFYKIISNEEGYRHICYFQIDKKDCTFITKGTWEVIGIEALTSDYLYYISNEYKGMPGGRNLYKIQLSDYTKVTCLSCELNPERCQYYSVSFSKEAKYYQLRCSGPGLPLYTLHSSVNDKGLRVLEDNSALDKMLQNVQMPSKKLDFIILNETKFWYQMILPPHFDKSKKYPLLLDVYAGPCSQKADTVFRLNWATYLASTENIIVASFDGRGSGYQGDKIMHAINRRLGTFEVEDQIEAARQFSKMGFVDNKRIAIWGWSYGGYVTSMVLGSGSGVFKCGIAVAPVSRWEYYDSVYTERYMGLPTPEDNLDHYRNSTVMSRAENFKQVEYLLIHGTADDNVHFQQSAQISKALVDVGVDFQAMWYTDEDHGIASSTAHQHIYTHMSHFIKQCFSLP

In the case of “Lys(MethylRed)-(D)Ser-Pro-Ser-Lys(5-FAM)-[Peg2-(D)Lys]3-NH2 [FAP2CD-Ser]”, the “signal (relative fluorescence intensity) with rhFAP” value (rhFAP; listed as D-Ser) is reported as “reduced signal”, the “FAP specificity (over PREP)” value (rhFAP) is reported as “demonstrates FAP specificity” and the “FAP specificity (over PREP)” value (rhFAP; listed as D-Ser) is reported as “FAP specificity over PREP”. For the same molecule, the “cleavage by rhFAP” value (rhFAP) was “highest rate of cleavage” and the “cleavage by rhPREP” value (rhPREP) was “without PREP cleavage”.
In the case of “FAM-Peg2-Gly-Pro-Gly-Pro-Asn-Gln-Lys(MethylRed)-NH2 [FAP1Li-FAM]”, the “signal (relative fluorescence intensity) with rhFAP” value (rhFAP) is reported as “signal intensity of FAP1 is higher”, the “cleavage by rhFAP” value (rhFAP) is reported as “cleaved rapidly; also recorded: endopeptidase activity” and the “cleavage by rhPREP” value (rhPREP) is reported as “cleaved more rapidly; also recorded: endopeptidase activity”. The “cleavage by rhDPPIV (exopeptidase activity)” value (rhDPPIV) was “Neither FAP1Li-FAM or FAP1 DLi-FAM are cleaved; also recorded: did not cleave”.
In the case of “FAP on cancer associated fibroblasts (CAFs) from NSCLC patient samples”, the “cleavage of FRET probe on a CAF monolayer (fluorescence 480/530 nm, one hour)” value (FAP3) is reported as “FAP3 was cleaved by FAP^+CAFs, with inhibition of signal when co-incubated with Val-boroPro”.
In the case of “Lys(MethylRed)-(D)Thr-Pro-Ser-Lys(5-FAM)-[Peg2-(D)Lys]3-NH2 [FAP2DD-Thr]”, the “signal (relative fluorescence intensity) with rhFAP” value (rhFAP) is reported as “reduced signal” and the “FAP specificity (over PREP)” value (rhFAP) is reported as “FAP specificity over PREP”.
For “Lys(MethylRed)-(D)Ala-Pro-Ser-Lys(5-FAM)-[Peg2-(D)Lys]3-NH2 [FAP2BD-Ala]”, the “signal (relative fluorescence intensity) with rhFAP” value (rhFAP) was “reduced signal” and the “FAP specificity (over PREP)” value (rhFAP) was “FAP specificity over PREP”.
With CC(C)[C@H](NC(=O)[C@@H](N)CCCCNC(=O)c1ccccc1N=Nc1ccc(N(C)C)cc1)C(=O)N[C@H](CO)C(=O)N1CCC[C@H]1C(=O)N[C@@H](CC(N)=O)C(=O)N[C@@H](CCC(N)=O)C(=O)NCC(=O)N[C@@H](CCCCNC(=O)c1ccc2c(c1)C(=O)OC21c2ccc(O)cc2Oc2cc(O)ccc21)C(=O)NCCOCCOCC(=O)N[C@H](CCCCN)C(=O)NCCOCCOCC(=O)N[C@H](CCCCN)C(=O)NCCOCCOCC(=O)N[C@H](CCCCN)C(N)=O [FAP3, Lys(MethylRed)-Val-(D)Ser-Pro-Asn-Gln-Gly-Lys(5-FAM)-[Peg2-(D)Lys]3-NH2] (H-K(X1)V[dS]PNQGK(5FAM)[AEEA][dK][AEEA][dK][AEEA][dK]-NH2) the clinical signs [1] was “no clinical signs”, the deaths [1] was “no deaths” and the “differences in body weights, body weight gains, food consumption, haematology, coagulation, clinical chemistry, organ weights and macroscopic and microscopic examinations” value ([1]; compared to a control group) was “no differences”.
With “Lys(MethylRed)-Ala-Pro-Ser-Lys(5-FAM)-[Peg2-(D)Lys]3-NH2 [FAP2AAla]” the “cleavage by rhFAP” value (rhFAP) was “FAP activity was absent” and the “cleavage by rhPREP” value (rhPREP) was “is cleaved; also recorded: demonstrated cleavage by PREP”.
In the case of MMP-13 (recombinant enzyme), the “cleavage of FRET probe by recombinant enzyme (fluorescence)” value (FAP3) is reported as “demonstrating no activity”.
In the case of “Lys(MethylRed)-(β)Ala-Pro-Ser-Lys(5-FAM)-[Peg2-(D)Lys]3-NH2 [FAP2Fβ-Ala]”, the “signal (relative fluorescence intensity) with rhFAP” value (rhFAP) is reported as “reduced signal” and the “FAP specificity (over PREP)” value (rhFAP) is reported as “FAP specificity over PREP”.
For CC(C)[C@H](N)C(=O)N1CCC[C@H]1B(O)O [Val-boroPro], the “inhibition of FAP3 signal in CAFs” value [2] was “inhibition of signal”, the “inhibition of FAP3 signal in CAFs” value ([2]; listed as VBP) was “signal was abrogated” and the “inhibition of FAP3 intensity and lifetime change in NSCLC tissue” value [3] was “inhibition; also recorded: abrogated”.
For “FAM-Peg2-Gly-Pro-Gly-(D)Pro-(D)Asn-Gln-Lys(MethylRed)-NH2 [FAP1DLi-FAM]”, the “cleavage by rhFAP” value (rhFAP) was “lower rate of cleavage; also recorded: FAP activity was significantly reduced”, the “cleavage by rhPREP” value (rhPREP) was “cleaves; also recorded: partial reduction in activity” and the “cleavage by rhPREP” value (rhPREP; listed as FAP1 DLi-FAM) was “still demonstrated PREP cleavage”. The “cleavage by rhDPPIV (exopeptidase activity)” value (rhDPPIV) was “Neither FAP1Li-FAM or FAP1 DLi-FAM are cleaved”.
In the case of “Lys(MethylRed)-D-Tyr-Pro-Ser-Lys(5-FAM)-[Peg2-(D)Lys]3-NH2 [FAP2ED-Tyr]”, the “cleavage by rhFAP” value (rhFAP) is reported as “loss of FAP activity”.
